Data on 1 substance can be found in publication PMC10469194.

This test addresses REGN10987-based FabH3 heavy chain (VH - GS-G4 linker - IgG1 CH3 K392D, K409D). Briefly: pull-down; co-purification from the soluble E. coli lysate by cobalt IMAC on the His6 tag of the heavy chain, native conditions; SDS-PAGE.

Chain of REGN10987-based FabH3 heavy chain (VH - GS-G4 linker - IgG1 CH3 K392D, K409D) (heavy, as listed by the source): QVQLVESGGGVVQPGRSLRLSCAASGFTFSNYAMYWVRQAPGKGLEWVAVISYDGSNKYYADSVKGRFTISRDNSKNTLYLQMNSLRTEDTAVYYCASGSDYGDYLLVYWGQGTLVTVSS

Regarding “REGN10987-based FabH3 light chain (VL - GS-G4 linker - IgG1 CH3 E356K, D399K)”, the stoichiometry N is 1.

The term stoichiometry N denotes the number of molecules, sites or subunits per partner or assembly.
